Results published in US12291504B2, “Small molecule inhibition of sulfotransferase SULT1A3” (University of Pittsburgh—Of the Commonwealth System of …, priority 2018, dated 2025).

Substrate: Oc1ccc2ccc3cccc4ccc1c2c34
Assay: SULT1A3 inhibition studies, 1-HP initial-rate fluorescence assay
Assay type: biochemical, human
Details: other: WT enzyme; saturating PAPS (500 μM, 17 × Km); pH 7.5; 25.0 °C
Protocol: The initial rates of SULT catalyzed 1-HP sulfonation are plotted as a function of inhibitor concentration, and are normalized relative to [inhibitor]=0. Enzyme activity was monitored by the sulfonation dependent change in 1-HP fluorescence (λex=325 nm, λem=370 nm). Less than 5% of the concentration-limiting substrate converted at the reaction endpoint was consumed during initial-rate measurements. Each point is the average of three independent determinations. Conditions: SULT (20 nM, active sites), PAPS (0.50 mM, 17×Km), 1-HP (5.0 μM, 61×Km), KPO4 (50 mM), pH 7.5, 25±2° C.
(§1) Initial-Rate Studies. Initial-rate parameters for the labeled or mutant SULT1A3 constructs were determined using a previously described 1-HP assay (25). […] Reactions were monitored via fluorescence change associated with the conversion of 1-HP to 1-HP-S (λex=325 nm, λem=370 nm). […] Reaction progress curves were analyzed to obtain initial-rate parameters as described previously (26,27). […]
as §1, with “(47).” for “(25).”, “(48,49).” for “(26,27).”

B1: SULT1A3 (Homo sapiens) (protein)
chain: MELIQDTSRPPLEYVKGVPLIKYFAEALGPLQSFQARPDDLLINTYPKSGTTWVSQILDMIYQGGDLEKCNRAPIYVRVPFLEVNDPGEPSGLETLKDTPPPRLIKSHLPLALLPQTLLDQKVKVVYVARNPKDVAVSYYHFHRMEKAHPEPGTWDSFLEKFMAGEVSYGSWYQHVQEWWELSRTHPVLYLFYEDMKENPKREIQKILEFVGRSLPEETMDFMVQHTSFKEMKKNPMTNYTTVPQELMDHSISPFMRKGMAGDWKTTFTVAQNERFDADYAEKMAGCSLSFRSEL
notes: Wild-type and mutant SULT1A3 coding regions were inserted into a pGEX-6P expression vector; N-His/GST/MBP triple-tag (N, cleaved yes); made in house; host or cells: E. coli BL21(DE3)
For B1, the Km was 82 (3) nM and the kcat was 2 s⁻¹.
